The target in experiment [1] is human PCSK9 (proprotein convertase subtilisin/kexin type 9), wild type (human) (UniProt Q8NBP7). Nature of the experiment: BIAcore SPR, antibody amine-coupled to CM5, PCSK9 as analyte, pH 7.4.
Experiment [2] shares this target. The experiment in a line: BIAcore SPR, human PCSK9, pH 7.4. On the technique in general: Surface plasmon resonance follows binding to a sensor surface in real time, without labels.
For experiment [3] the target is unchanged. The experiment in a line: KinExA solution equilibrium, PCSK9-coated beads. For orientation: A kinetic exclusion assay measures how much of one partner remains free in solution.
The target is the same in experiment [4]. The experiment in a line: BIAcore SPR, human PCSK9, pH 6.0.
Experiment [5] has the same target. Nature of the experiment: BIAcore solution equilibrium assay, 21B12 immobilised on CM5, one-site fit in KinExA Pro.

Here are results for 2 molecules from patent EP4803139A2.

B1: 16F12, anti-PCSK9 huIgG4 (antibody, V domains shown)
VH: QVHLVESGGGVVQPGRSLRLSCAASGFTFNSFGMHWVRQAPGKGLEWVALIWSDGSDEYYADSVKGRFTISRDNSKNTLYLQMNSLRAEDTAVYYCARAIAALYYYYGMDVWGQGTTVTVSS
VL: QSVLTQPPSVSAAPGQKVTISCSGSSSNIGNNFVSWYQQLPGTAPKLLIYDYNKRPSGIPDRFSGSKSGTSATLGITGLQTGDEADYYCGTWDSSLSAYVFGTGTRVTVLQ
Regarding B1, the Kd in experiment [1] was 0.47 nM; in experiment [2], 0.47 nM; in experiment [3] it was 0.015 nM; in experiment [4], 0.029 nM. The koff in experiment [2] was determined as 4.98e-05 s⁻¹; in experiment [4] it was 7.01e-05 s⁻¹. Further, the kon in experiment [2] came out at 106000 M⁻¹ s⁻¹; in experiment [4], 2.39e+06 M⁻¹ s⁻¹.

B2: 21B12, anti-PCSK9 huIgG4 (antibody, V domains shown)
VH: QVQLVQSGAEVKKPGASVKVSCKASGYTLTSYGISWVRQAPGQGLEWMGWVSFYNGNTNYAQKLQGRGTMTTDPSTSTAYMELRSLRSDDTAVYYCARGYGMDVWGQGTTVTVSS
VL: QSALTQPASVSGSPGQSITISCTGTSSDVGGYNSVSWYQQHPGKAPKLMIYEVSNRPSGVSNRFSGSKSGNTASLTISGLQAEDEADYYCNSYTSTSMVFGGGTKLTVLQ
Take B2: the Kd was 0.19 nM in experiment [1], 0.19 nM in experiment [2], 0.015 nM in experiment [5] and 0.0073 nM in experiment [4]. The koff was determined as 6.63e-06 s⁻¹ in experiment [2] and 1.68e-05 s⁻¹ in experiment [4]. Moreover, the kon in experiment [2] is 34900 M⁻¹ s⁻¹; in experiment [4], 2.29e+06 M⁻¹ s⁻¹.

By Kd is commonly meant the free concentration of one partner at which half of the binding sites on the other are occupied at equilibrium, for simple one-to-one binding. High values mean weaker binding, low ones tighter binding. Usually koff stands for the first-order rate constant of dissociation. A lower koff goes with a long-lived complex. As usually defined, the kon is the second-order rate constant of association.
